Reference: PMC10502629

Columns and labels:
[1] = target: SC-A0A4 (SpyCatcher fused to the N-terminus of the AaLS homologue A0A497XTC1 of Hydrogenivirga caldilitoris) (Hydrogenivirga caldilitoris); test: covalent SpyCatcher/SpyTag conjugation read by SDS-PAGE; purified SC-scaffolds incubated with ST-OVAT in conventional buffer without any enzyme (4 °C, 16 h in Figure 3e); conjugates purified by SEC, SDS-PAGE with Coomassie staining; reactivity kept after heating at 75 °C or 5 x …
[2] = target: SC-AaLS (SpyCatcher fused to the N-terminus of Aquifex aeolicus lumazine synthase) (Aquifex aeolicus); test: as above

ST-OVAT (SpyTag fused to the N-terminus of ovalbumin T epitopes) (peptide)
percent conjugated [1]: 100% | percent conjugated [2]: 100%
